Test results taken from patent publication US20230212239A1, “INHIBITORS OF CBL AUTOINHIBITION AND RELATED METHODS” (THE HOSPITAL FOR SICK CHILDREN, priority 2020, published 2023).

T1: CBL TKBD-LHR-RING (2-436), unphosphorylated (Homo sapiens, UniProt P22681)
T1 construct: GST (N, cleaved yes); made in house; host or cells: E. coli BL-21
T1 sequence (P22681 2-436): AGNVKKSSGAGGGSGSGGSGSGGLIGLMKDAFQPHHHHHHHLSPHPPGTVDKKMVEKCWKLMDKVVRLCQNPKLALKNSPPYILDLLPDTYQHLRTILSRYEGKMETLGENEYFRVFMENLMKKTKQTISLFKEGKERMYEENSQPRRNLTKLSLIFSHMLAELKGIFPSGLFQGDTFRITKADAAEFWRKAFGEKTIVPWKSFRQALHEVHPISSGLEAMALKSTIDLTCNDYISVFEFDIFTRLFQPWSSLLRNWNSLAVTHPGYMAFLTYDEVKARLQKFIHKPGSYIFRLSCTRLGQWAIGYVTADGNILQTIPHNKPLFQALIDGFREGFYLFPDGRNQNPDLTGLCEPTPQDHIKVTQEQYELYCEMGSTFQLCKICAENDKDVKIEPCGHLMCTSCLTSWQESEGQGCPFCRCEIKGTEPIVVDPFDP

T2: CBL TKBD (Homo sapiens, UniProt P22681)
T2 construct: with CBL (47-357) cloned in frame into MCS2 of the same pETDuet-1 vector; made in house
T2 sequence (P22681 47-357): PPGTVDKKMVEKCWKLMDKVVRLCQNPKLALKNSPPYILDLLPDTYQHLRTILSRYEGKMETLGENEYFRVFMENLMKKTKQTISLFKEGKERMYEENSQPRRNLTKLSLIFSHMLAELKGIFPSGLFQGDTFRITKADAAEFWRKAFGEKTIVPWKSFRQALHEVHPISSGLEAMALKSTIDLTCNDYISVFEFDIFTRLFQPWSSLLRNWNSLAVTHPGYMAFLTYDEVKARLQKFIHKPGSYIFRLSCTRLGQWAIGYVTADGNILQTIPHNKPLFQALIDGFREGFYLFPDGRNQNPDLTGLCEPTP

B1: SLAP2 R242A: SLAP2 mutant in the SLAP2/SLAP2 interface (protein)
chain: EAERSKATAVALGSFPAGGPAELSLRLGEPLTIVSEDGDWWTVLSEVSGREYNIPSVHVAKVSHGWLYEGLSREKAEELLLLPGNPGGAFLIRESQTRRGSYSLSVRLSRPASWDRIRHYRIHCLDNGWLYISPRLTFPSLQALVDHYSELADDICCLLKEPCVLQRAGPLPGKDIPLPVTVQRTPLNWKELDSSLLFSEAATGEESLLSEGLAESLSFYISLNDEAVSLDDA
modifications: left off: large carriers; small tags and cut ends
notes: SLAP2 mutant in the SLAP2/SLAP2 interface
B2: SLAP2 I249W: SLAP2 mutant in the SLAP2/SLAP2 interface (protein)
chain: EAERSKATAVALGSFPAGGPAELSLRLGEPLTIVSEDGDWWTVLSEVSGREYNIPSVHVAKVSHGWLYEGLSREKAEELLLLPGNPGGAFLIRESQTRRGSYSLSVRLSRPASWDRIRHYRIHCLDNGWLYISPRLTFPSLQALVDHYSELADDICCLLKEPCVLQRAGPLPGKDIPLPVTVQRTPLNWKELDSSLLFSEAATGEESLLSEGLRESLSFYWSLNDEAVSLDDA
modifications: left off: large carriers; small tags and cut ends
notes: as for B1
B3: SLAP2 S246/250E: SLAP2 double mutant in the SLAP2/SLAP2 interface (protein)
chain: EAERSKATAVALGSFPAGGPAELSLRLGEPLTIVSEDGDWWTVLSEVSGREYNIPSVHVAKVSHGWLYEGLSREKAEELLLLPGNPGGAFLIRESQTRRGSYSLSVRLSRPASWDRIRHYRIHCLDNGWLYISPRLTFPSLQALVDHYSELADDICCLLKEPCVLQRAGPLPGKDIPLPVTVQRTPLNWKELDSSLLFSEAATGEESLLSEGLRESLEFYIELNDEAVSLDDA
modifications: left off: large carriers; small tags and cut ends
notes: SLAP2 double mutant in the SLAP2/SLAP2 interface
B4: SLAP2 Y248F: SLAP2 Tyr248 to Phe mutant, expressed under phosphorylating conditions (protein)
chain: EAERSKATAVALGSFPAGGPAELSLRLGEPLTIVSEDGDWWTVLSEVSGREYNIPSVHVAKVSHGWLYEGLSREKAEELLLLPGNPGGAFLIRESQTRRGSYSLSVRLSRPASWDRIRHYRIHCLDNGWLYISPRLTFPSLQALVDHYSELADDICCLLKEPCVLQRAGPLPGKDIPLPVTVQRTPLNWKELDSSLLFSEAATGEESLLSEGLRESLSFFISLNDEAVSLDDA
modifications: left off: large carriers; small tags and cut ends
notes: SLAP2 Tyr248 to Phe mutant, expressed under phosphorylating conditions
B5: Phosphorylated SLAP2 L241R: phosphorylated SLAP2 point mutant L241R at CBL/SLAP2 interface (protein, UniProt Q9H6Q3 2-261, looked up, variant L241R)
Src-like-adapter 2: GSLPSRRKSLPSPSLSSSVQGQGPVTMEAERSKATAVALGSFPAGGPAELSLRLGEPLTIVSEDGDWWTVLSEVSGREYNIPSVHVAKVSHGWLYEGLSREKAEELLLLPGNPGGAFLIRESQTRRGSYSLSVRLSRPASWDRIRHYRIHCLDNGWLYISPRLTFPSLQALVDHYSELADDICCLLKEPCVLQRAGPLPGKDIPLPVTVQRTPLNWKELDSSLLFSEAATGEESLLSEGRRESLSFYISLNDEAVSLDDA
modifications: tyrosine phosphorylated
notes: phosphorylated SLAP2 point mutant L241R at CBL/SLAP2 interface
B6: Phosphorylated SLAP2 S244E: phosphorylated SLAP2 point mutant S244E at CBL/SLAP2 interface (protein, UniProt Q9H6Q3 2-261, looked up, variant S244E)
Src-like-adapter 2: GSLPSRRKSLPSPSLSSSVQGQGPVTMEAERSKATAVALGSFPAGGPAELSLRLGEPLTIVSEDGDWWTVLSEVSGREYNIPSVHVAKVSHGWLYEGLSREKAEELLLLPGNPGGAFLIRESQTRRGSYSLSVRLSRPASWDRIRHYRIHCLDNGWLYISPRLTFPSLQALVDHYSELADDICCLLKEPCVLQRAGPLPGKDIPLPVTVQRTPLNWKELDSSLLFSEAATGEESLLSEGLREELSFYISLNDEAVSLDDA
modifications: phosphorylated
notes: phosphorylated SLAP2 point mutant S244E at CBL/SLAP2 interface

Legend:
[1] = target: T1, CBL TKBD-LHR-RING (2-436), unphosphorylated; assay: In vitro ubiquitination assay, anti-ubiquitin immunoblot; format: biochemical; conditions: anti-Ub immunoblot and E3LITE (FIGS. 11A,B, 10B-D)
Text: Given that binding of SLAP2 and the LHR-RING would be mutually exclusive (FIG. 8C), we reasoned that binding of SLAP2 to CBL could displace the LHR-RING, thereby promoting the catalytically competent conformation. To test this hypothesis, an in vitro ubiquitination assay in which E3 ligase activity is detected by a smear at high molecular weight on an anti-ubiquitin (Ub) immunoblot was employed. […] To further compare and quantify CBL ubiquitin ligase activity, a chemiluminescence based assay which measures the total amount of polyubiquitylated products formed in an in vitro reaction was used. In this assay, production of polyubiquitylated proteins increased upon addition of SLAP2 or pSLAP2 to CBL, compared to CBL alone (FIG. 9C and FIG. 10A).
In vitro ubiquitination reactions were prepared with 20 pmol of CBL or pCBL and 60 pmol of hSLAP2 or phosphorylated hSLAP2 (pSLAP2) for both WT and mutants. Reagents were thawed and reactions prepared on ice. CBL and SLAP2 were mixed in PBS (with 5 mM βME, 5 mM caproic acid, 0.5 mM PMSF, and 0.5 mM Na3VO4) at rt for 5-10 min before addition of master mix (42 pmol E1 (UBE1, Boston Biochem or Ubiquitin-Proteasome Biotechnologies), 0.1 µmol E2 (UbcH5b/UBE2D2, Boston Biochem #E2-622), […], and 11.6 µmol ubiquitin (Boston Biochem #U-100H) in reaction buffer (0.2 M Tris pH 7.5, 10 mM MgCl2, 2 mM DTT). Reactions were incubated at 30° C. shaking at 500-700 rpm for 60-110 minutes and terminated by addition of SDS 2X loading buffer and boiling for 5-10 minutes. Equal volumes of each reaction were loaded on 12.5% SDS-PAGE gel, transferred to PVDF membrane, and immunoblotted for ubiquitin as per standard protocols (anti-ubiquitin antibody P4G7, BioLegend #838701, 1:1000; anti-mouse IgG HRP-linked antibody, Cell Signaling Technology #7076, 1:10000; Western Lightning Plus ECL, Perkin Elmer).

CBL TKBD [2] = assay: Co-purification of CBL TKBD with Trx-His-SLAP2/SLAP (Duet co-expression, Ni-NTA, SDS-PAGE); format: binding; conditions: low salt concentration (0.15 M NaCl)
Text: (§1) To validate the CBL/SLAP2 binding interface, a series of mutants in a Duet co-expression vector system was generated for co-purification trials. The SLAP2 sequence was preceded by thioredoxin (Trx) and His-tag fusion proteins to allow co-purification of CBL TKBD that was bound to Trx-His-SLAP2 during the initial affinity chromatography purification step. Surface residues deemed to be important to the CBL/SLAP2 interface, but not CBL function or folding, were mutated to disrupt CBL/SLAP2 binding (FIG. 5C and FIG. 6). In our structure, SLAP2 Gly240 locates close to CBL Met269 and Ala270, such that mutation to a bulky Arg residue (G240R) could cause sterical constraints. Similarly, SLAP2 Leu241 is situated in a hydrophobic cleft composed of CBL Ala223, Trp258, and Val263; mutation to Arg (L241R) was predicted to disturb this binding pocket. Mutation of CBL Ala223 to Arg (A223R) would likewise disrupt this pocket, with CBL/SLAP2 double mutant A223R/L241R predicted to drastically disturb binding through sterical constraints and charge repulsion. (For clarity, CBL mutations herein are indicated in italics, SLAP2 in regular font.) Similarly, single or double mutation of CBL Ser226 or SLAP2 Ser244, whose side chain hydroxyl groups are in close proximity to one another, to charged Glu residues (S226E and S244E) was anticipated to interfere with CBL/SLAP2 binding. Finally, given that SLAP2 binds CBL as an α-helix, mutation of Leu245, located in the center of this α-helix, to proline (L245P) was expected to interrupt the helical structure and thus prevent SLAP2 binding. […] However, double mutation of the CBL/SLAP2 interface (A223R/L241R and S226E/S244E; FIG. 5D, lower panel) was not tolerated, even at low salt concentration.
(§2) For co-purification of CBL and SLAP2/SLAP, Duet-His-hSLAP2-CBL 29-261 Δ198-229 and 29-254 Δ198-229, Duet-His-Δlinker-hSLAP2-CBL WT and point mutants, and Duet-His-mSLAP-CBL WT and point mutants were overexpressed in E. coli BL-21 as above or TKB1 competent cells (Stratagene) as per manufacturer’s instructions, and cells harvested as above (except 100 mL of LB, overnight at 16-18° C., and 0.35-0.5 mM IPTG induction). Cell pellets were resuspended in either high or low salt (as for high salt except 25 mM HEPEs pH 7.5, 150 mM NaCl) lysis buffer and purified as above on Ni-NTA agarose (Qiagen) with wash buffer (25 mM HEPEs pH 7.5, 150 mM NaCl, 2% glycerol, 20 mM imidazole, 10 mM βME). Bead slurry was mixed with SDS 2X loading buffer (125 mM Tris pH 6.8, 4% SDS, 20% glycerol, 0.715 M βME, bromophenol blue), boiled, and analyzed by 10 or 12.5% SDS-PAGE, stained with Coomassie blue.

CBL TKBD [3] = target: T2, CBL TKBD; assay: as above; format: binding; conditions: conditions where SLAP2 was tyrosine phosphorylated (TKB1), low salt
Text: as §1, §2

| Molecule | stimulation/activation of CBL ubiquitination activity by SLAP2 mutants versus WT [1] | CBL TKBD co-purification (CBL TKBD [2]) | CBL TKBD co-purification (CBL TKBD [3]) |
| --- | --- | --- | --- |
| B1 | did not alter SLAP2 or pSLAP2 activation of CBL | did not significantly impact co-purification of CBL | – |
| B2 | did not alter SLAP2 or pSLAP2 activation of CBL | did not significantly impact co-purification of CBL | – |
| B3 | did not alter SLAP2 or pSLAP2 activation of CBL | did not significantly impact co-purification of CBL | – |
| B4 | – | – | co-purified |
| B5 | reduced stimulation of CBL ubiquitination activity compared to pSLAP2 WT | – | – |
| B6 | less stimulation of CBL ubiquitination activity than pSLAP2 WT | – | – |
